{"source": "paper PMC9565474", "about": "“Evolution avoids a pathological stabilizing interaction in the immune protein S100A9” (Proceedings of the National Academy of Sciences of the …, 2022)", "proteins": {"B1": {"name": "hS100A9/M63F (natural protein, human, UniProt P06702 1-114, looked up)", "chain": "MTSKMSQLERNIETIINTFHQYSVKLGHPDTLNQGEFKELVRKDLQNFLKKENKNEKVIEHIFEDLDTNADKQLSFEEFIMLMARLTWASHEKMHEGDEGPGHHHKPGLGEGTP", "notes": "human S100A9, Uniprot P06702, Cys-free (C3S) background with M63F; 114 residues (residues 1 to 114 named in the NMR structure); 15N or 15N/13C labelled for NMR; also called human S100A9 M63F; F/F"}}, "target": "the molecule itself", "experiment": "NMR structure; calcium-bound hS100A9/M63F, 0.5 to 1.0 mM dimer, 25 mM Tris, 100 mM NaCl, 10 mM CaCl2 (pH 7.4), 10% D2O, 25 °C or 37 °C; homodimer with chains A and B"}
{"protein": "B1", "values": [{"measurement": "binding result", "value": "binds"}]}
